The results in this text go back to patent US20040248807A1 (OREGON HEALTH AND SCIENCE UNIVERSITY, published 2004).

Square brackets hold non-standard residues; d marks the D form. Ends that are not written are not given here. pY = N[C@@H](Cc1ccc(OP(=O)(O)O)cc1)C(=O)O

The target in this test is Human α-thrombin (human, UniProt P00734 328-622). Nature of the test: fluorescence polarization competition against fluoresceinated γ′408-427 phosphorylated peptide, 2 µM α-thrombin. Background: Polarisation of emitted light reports the rotation of a fluorescent probe.

B1: γ′ amino-terminal deletion peptide 417-427, phosphotyrosine at 418 and 422 (peptide)
peptide: E[pY]DSL[pY]PEDDL
Take B1: the binding result is reported as “no binding”.
